Publication PMC5906663

What was measured:
[1] = target: human NCAM Ig1 Fc fusion protein (human); test: pull-down; 1 ug of neurocan (human or mouse) incubated with 1 ug of Fc protein in TBS for 1 hr at 37 C; Fc proteins pulled down with Protein A/G Sepharose beads; immunoblot, densitometry
[2] = target: human NCAM Ig1-2 Fc fusion protein (human); test: as above
[3] = target: human NCAM Ig1-3 Fc fusion protein (human); test: as above
[4] = target: human NCAM Ig2 Fc fusion protein (human); test: as above
[5] = target: NCAM K162D mutant expressed in HEK293T cells (UniProt P13591); test: co-IP; lysates (1 mg, RIPA buffer) of HEK293T cells transfected with NCAM140, NCAM mutants or EphA3, incubated with recombinant neurocan; precipitated with antibodies against NCAM (H-300) or EphA3 (C-19) and Protein A/G agarose; immunoblot for neurocan, densitometry
[6] = target: NCAM R156E mutant expressed in HEK293T cells (UniProt P13591); test: as above
[7] = target: human NCAM Ig1-5/FN1-2 Fc fusion protein (full-length NCAM-EC) (human) (UniProt P13591); test: pull-down; 1 ug of neurocan (human or mouse) incubated with 1 ug of Fc protein in TBS for 1 hr at 37 C; Fc proteins pulled down with Protein A/G Sepharose beads; immunoblot, densitometry

| neurocan bound, percent of the amount bound to NCAM-EC-Fc [1] [%] | neurocan bound, percent of the amount bound to NCAM-EC-Fc [2] [%] | neurocan bound, percent of the amount bound to NCAM-EC-Fc [3] [%] | neurocan bound, percent of the amount bound to NCAM-EC-Fc [4] [%] | neurocan co-immunoprecipitated, percent of WT NCAM [5] | neurocan co-immunoprecipitated, percent of WT NCAM [6] | neurocan bound to NCAM-EC-Fc, percent of the human neurocan level [7] [%] | Substance |
| --- | --- | --- | --- | --- | --- | --- | --- |
| 23 | 33 | 50 | 129 | 41 % of WT | 32 % of WT |  | recombinant human neurocan (full-length protein) (from UniProt O14594 23-1321) (natural protein) |
|  |  |  |  |  |  | 93 | recombinant mouse neurocan Glu23-637 (a truncation lacking the sushi domain) (from UniProt P55066 23-637) (domain or fragment) |
